Here are results for 13 molecules from US20230257458A1 (SUNSHINE LAKE PHARMA, published 2023).

Usually Kd stands for a measure of binding affinity in units of concentration. The low end stands for a tighter complex, the high end for a looser complex. Broadly, the koff is the rate constant with which the complex falls apart. Read a high koff as fast dissociation. For orientation: kon means the second-order rate constant of association. Low readings indicate slow association, high ones fast association.

The labels stand for the following.
T1: IL-11 protein (UniProt P20809 22-199, limits assumed)
T1 construct: also called IL-11 antigen
T1 sequence (looked up): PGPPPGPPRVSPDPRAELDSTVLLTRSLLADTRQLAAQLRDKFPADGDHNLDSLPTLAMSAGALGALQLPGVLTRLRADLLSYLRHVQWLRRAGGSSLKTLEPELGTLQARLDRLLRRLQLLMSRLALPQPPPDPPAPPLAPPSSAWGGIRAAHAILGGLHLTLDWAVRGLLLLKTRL

B1: VH2 + VL3-scFv (scFv, V domains shown)
VH: QVQLVQSGAEVKKPGASVKVSCKASDYTFTNYWLGWVRQAPGQGLEWIGHIYPGGGYTNYNEKFKGRVTMTADTSTSTVYMELSSLRSEDTAVYFCARVRSGNDALDFWGQGTLVTVSS
VL: EIVLTQSPATLSLSPGERATLSCRASESVDEYGISFMNWFQQKPGQAPRLLIYSASNQGSGIPARFSGSGSGTDFTLTISSLEPEDFAVYFCQQSKEVPWTFGGGTKLEIK
notes: Humanized 5-20E11-5F2; CHO supernatant; Called scFv, but heavy and light vectors were co-transfected
B2: VH3 + VL3-scFv (scFv, V domains shown)
VH: QVQLVQSGAEVKKPGASVKVSCKASDYTFTNYWLGWVRQAPGQGLEWIGHIYPGGGYTNYNEKFKGRATLTADTSTSTVYMELSSLRSEDTAVYFCARVRSGNDALDFWGQGTLVTVSS
VL: EIVLTQSPATLSLSPGERATLSCRASESVDEYGISFMNWFQQKPGQAPRLLIYSASNQGSGIPARFSGSGSGTDFTLTISSLEPEDFAVYFCQQSKEVPWTFGGGTKLEIK
notes: as for B1
B3: VH1 + VL2-scFv (scFv, V domains shown)
VH: QVQLVQSGAEVKKPGASVKVSCKASDYTFTNYWLGWVRQAPGQGLEWMGHIYPGGGYTNYNEKFKGRVTMTRDTSTSTVYMELSSLRSEDTAVYYCARVRSGNDALDFWGQGTLVTVSS
VL: EIVLTQSPATLSLSPGERATLSCRASESVDEYGISFMNWYQQKPGQAPRLLIYSASNQGSGIPARFSGSGSGTDFTLTISSLEPEDFAVYFCQQSKEVPWTFGGGTKLEIK
notes: as for B1
B4: VH3 + VL1-scFv (scFv, V domains shown)
VH: QVQLVQSGAEVKKPGASVKVSCKASDYTFTNYWLGWVRQAPGQGLEWIGHIYPGGGYTNYNEKFKGRATLTADTSTSTVYMELSSLRSEDTAVYFCARVRSGNDALDFWGQGTLVTVSS
VL: EIVLTQSPATLSLSPGERATLSCRASESVDEYGISFMNWYQQKPGQAPRLLIYSASNQGSGIPARFSGSGSGTDFTLTISSLEPEDFAVYYCQQSKEVPWTFGGGTKLEIK
notes: as for B1
B5: VH2 + VL4-scFv (scFv, V domains shown)
VH: QVQLVQSGAEVKKPGASVKVSCKASDYTFTNYWLGWVRQAPGQGLEWIGHIYPGGGYTNYNEKFKGRVTMTADTSTSTVYMELSSLRSEDTAVYFCARVRSGNDALDFWGQGTLVTVSS
VL: EIVLTQSPATLSLSPGERATLSCRASESVDEYGISFMNWFQQKPGQAPRLLIYSASNQGSGIPARFSGSGSGTDFTLTISSLEPEDFAMYFCQQSKEVPWTFGGGTKLEIK
notes: as for B1
B6: VH1 + VL3-scFv (scFv, V domains shown)
VH: QVQLVQSGAEVKKPGASVKVSCKASDYTFTNYWLGWVRQAPGQGLEWMGHIYPGGGYTNYNEKFKGRVTMTRDTSTSTVYMELSSLRSEDTAVYYCARVRSGNDALDFWGQGTLVTVSS
VL: EIVLTQSPATLSLSPGERATLSCRASESVDEYGISFMNWFQQKPGQAPRLLIYSASNQGSGIPARFSGSGSGTDFTLTISSLEPEDFAVYFCQQSKEVPWTFGGGTKLEIK
notes: as for B1
B7: VH3 + VL2-scFv (scFv, V domains shown)
VH: QVQLVQSGAEVKKPGASVKVSCKASDYTFTNYWLGWVRQAPGQGLEWIGHIYPGGGYTNYNEKFKGRATLTADTSTSTVYMELSSLRSEDTAVYFCARVRSGNDALDFWGQGTLVTVSS
VL: EIVLTQSPATLSLSPGERATLSCRASESVDEYGISFMNWYQQKPGQAPRLLIYSASNQGSGIPARFSGSGSGTDFTLTISSLEPEDFAVYFCQQSKEVPWTFGGGTKLEIK
notes: as for B1
B8: VH2 + VL1-scFv (scFv, V domains shown)
VH: QVQLVQSGAEVKKPGASVKVSCKASDYTFTNYWLGWVRQAPGQGLEWIGHIYPGGGYTNYNEKFKGRVTMTADTSTSTVYMELSSLRSEDTAVYFCARVRSGNDALDFWGQGTLVTVSS
VL: EIVLTQSPATLSLSPGERATLSCRASESVDEYGISFMNWYQQKPGQAPRLLIYSASNQGSGIPARFSGSGSGTDFTLTISSLEPEDFAVYYCQQSKEVPWTFGGGTKLEIK
notes: as for B1
B9: VH4 + VL1-scFv (scFv, V domains shown)
VH: QVQLVQSGAEVKKPGASVKVSCKASDYTFTNYWLGWVRQAPGHGLEWIGHIYPGGGYTNYNEKFKGRATLTADTSTSTVYMELSSLRSEDTAVYFCARVRSGNDALDFWGQGTLVTVSS
VL: EIVLTQSPATLSLSPGERATLSCRASESVDEYGISFMNWYQQKPGQAPRLLIYSASNQGSGIPARFSGSGSGTDFTLTISSLEPEDFAVYYCQQSKEVPWTFGGGTKLEIK
notes: as for B1
B10: VH3 + VL4-scFv (scFv, V domains shown)
VH: QVQLVQSGAEVKKPGASVKVSCKASDYTFTNYWLGWVRQAPGQGLEWIGHIYPGGGYTNYNEKFKGRATLTADTSTSTVYMELSSLRSEDTAVYFCARVRSGNDALDFWGQGTLVTVSS
VL: EIVLTQSPATLSLSPGERATLSCRASESVDEYGISFMNWFQQKPGQAPRLLIYSASNQGSGIPARFSGSGSGTDFTLTISSLEPEDFAMYFCQQSKEVPWTFGGGTKLEIK
notes: as for B1
B11: VH1 + VL1-scFv (scFv, V domains shown)
VH: QVQLVQSGAEVKKPGASVKVSCKASDYTFTNYWLGWVRQAPGQGLEWMGHIYPGGGYTNYNEKFKGRVTMTRDTSTSTVYMELSSLRSEDTAVYYCARVRSGNDALDFWGQGTLVTVSS
VL: EIVLTQSPATLSLSPGERATLSCRASESVDEYGISFMNWYQQKPGQAPRLLIYSASNQGSGIPARFSGSGSGTDFTLTISSLEPEDFAVYYCQQSKEVPWTFGGGTKLEIK
notes: as for B1
B12: VH2 + VL2-scFv (scFv, V domains shown)
VH: QVQLVQSGAEVKKPGASVKVSCKASDYTFTNYWLGWVRQAPGQGLEWIGHIYPGGGYTNYNEKFKGRVTMTADTSTSTVYMELSSLRSEDTAVYFCARVRSGNDALDFWGQGTLVTVSS
VL: EIVLTQSPATLSLSPGERATLSCRASESVDEYGISFMNWYQQKPGQAPRLLIYSASNQGSGIPARFSGSGSGTDFTLTISSLEPEDFAVYFCQQSKEVPWTFGGGTKLEIK
notes: as for B1
B13: VH1 + VL4-scFv (scFv, V domains shown)
VH: QVQLVQSGAEVKKPGASVKVSCKASDYTFTNYWLGWVRQAPGQGLEWMGHIYPGGGYTNYNEKFKGRVTMTRDTSTSTVYMELSSLRSEDTAVYYCARVRSGNDALDFWGQGTLVTVSS
VL: EIVLTQSPATLSLSPGERATLSCRASESVDEYGISFMNWFQQKPGQAPRLLIYSASNQGSGIPARFSGSGSGTDFTLTISSLEPEDFAMYFCQQSKEVPWTFGGGTKLEIK
notes: as for B1

In the assay the target is T1, IL-11 protein. The assay can be described thus: SPR (Biacore), antibody captured, 400 nM IL-11 as analyte. The method, then:
The measure method included the steps of capturing the humanized antibody at a flow rate of 10 ul/min. […] Finally the chip was regenerated with 10 mM glycine buffer.
(In general: Surface plasmon resonance follows binding to a sensor surface in real time, without labels.)
B1 came in with a Kd of 11.9 nM, a dissociation rate constant (koff) of 0.000541 s⁻¹ and an on-rate constant (kon) of 45600 M⁻¹ s⁻¹.

B2 gave a Kd of 9.76 nM, an off-rate (koff) of 0.000464 s⁻¹ and a kon of 47600 M⁻¹ s⁻¹.

As for B3, the dissociation constant Kd worked out at 11.2 nM, the koff worked out at 0.000461 s⁻¹ and the kon amounted to 41300 M⁻¹ s⁻¹.

B4 had a Kd of 22.5 nM, a koff of 0.001 s⁻¹ and a kon of 44500 M⁻¹ s⁻¹.

Molecule B5 yielded a dissociation constant Kd of 10.8 nM, a koff of 0.000528 s⁻¹ and a kon of 48800 M⁻¹ s⁻¹.

The molecule B6 displayed a dissociation constant Kd of 12.3 nM, an off-rate constant (koff) of 0.000436 s⁻¹ and a kon of 35500 M⁻¹ s⁻¹.

In turn, B7 yielded a Kd of 14.6 nM, an off-rate constant (koff) of 0.00068 s⁻¹ and a kon of 46500 M⁻¹ s⁻¹.

Regarding B8, the affinity, expressed as Kd, was 16.7 nM; the koff was found to be 0.00089 s⁻¹; the on-rate (kon) stood at 53400 M⁻¹ s⁻¹.

Regarding B9, the Kd was found to be 17.2 nM, the koff turned out to be 0.00084 s⁻¹ and the kon came to 48900 M⁻¹ s⁻¹.

As to B10, the Kd stood at 13.3 nM, the koff was found to be 0.000556 s⁻¹ and the on-rate (kon) is 41800 M⁻¹ s⁻¹.

In the case of B11, binding was put at a Kd of 21.6 nM, the koff is 0.000758 s⁻¹ and the on-rate (kon) came out at 35100 M⁻¹ s⁻¹.

For the molecule B12, binding was characterised by a dissociation constant (Kd) of 17.8 nM, the koff came out at 0.000812 s⁻¹ and the on-rate (kon) was 45700 M⁻¹ s⁻¹.

B13 returned a Kd of 11.7 nM, a dissociation rate constant (koff) of 0.000387 s⁻¹ and a kon of 33100 M⁻¹ s⁻¹.
